# Molecular target: Bartonella henselae Nudix hydrolase BH02020 (Bh-MutT) (Bartonella henselae strain Houston-1)
# Experiment: SEC; Superdex75 size-exclusion column, retention time 68 min; 21-residue N-terminal tag present
substance,measurement,value
Bartonella henselae Nudix hydrolase BH02020 (Bh-MutT) (enzyme),stoichiometry N,2

# — paper PMC3169405
